{
  "source": "patent US20110020432A1",
  "about": "“COMPOSITIONS AND METHODS OF USE FOR POST-RADIATION PROTECTION” (TERAPIO CORPORATION, priority 2009, published 2011)",
  "molecules": {"B1": {"name": "RLIP76 protein: ubiquitous multi-specific efflux pump protein; human sequence of 655 amino acids, GenBank NP—006779; recombinant (protein, UniProt Q15311 2-655, looked up)", "RalA-binding protein 1": "TECFLPPTSSPSEHRRVEHGSGLTRTPSSEEISPTKFPGLYRTGEPSPPHDILHEPPDVVSDDEKDHGKKKGKFKKKEKRTEGYAAFQEDSSGDEAESPSKMKRSKGIHVFKKPSFSKKKEKDFKIKEKPKEEKHKEEKHKEEKHKEKKSKDLTAADVVKQWKEKKKKKKPIQEPEVPQIDVPNLKPIFGIPLADAVERTMMYDGIRLPAVFRECIDYVEKYGMKCEGIYRVSGIKSKVDELKAAYDREESTNLEDYEPNTVASLLKQYLRDLPENLLTKELMPRFEEACGRTTETEKVQEFQRLLKELPECNYLLISWLIVHMDHVIAKELETKMNIQNISIVLSPTVQISNRVLYVFFTHVQELFGNVVLKQVMKPLRWSNMATMPTLPETQAGIKEEIRRQEFLLNCLHRDLQGGIKDLSKEERLWEVQRILTALKRKLREAKRQECETKIAQEIASLSKEDVSKEEMNENEEVINILLAQENEILTEQEELLAMEQFLRRQIASEKEEIERLRAEIAEIQSRQQHGRSETEEYSSESESESEDEEELQIILEDLQRQNEELEIKNNHLNQAIHEEREAIIELRVQLRLLQMQRAKAEQQAQEDEEPEWRGGAVQPPRDGVLEPKAAKEQPKAGKEPAKPSPSRDRKETSI"}},
  "key": {"[1]": {"conditions": "reported in the scientific literature; cited from earlier work"}, "[2]": {"tested_on": "mice", "conditions": "whole animal studies; reported DRF; cited from earlier work"}, "[3]": {"tested_on": "wild-type (+/+) and homozygous (−/−) RIP1 mice", "test": "Survival of wild-type and RIP1 knockout mice after X-irradiation, RLIP76 liposomes i.p.", "type": "in vivo", "protocol": "FIG. 5. Effect of RLIP76 on survival after higher doses of X irradiation. Four wild-type (+/+) RIP1 mice and four homozygous (−/−) mice were each exposed to 750 cGy X irradiation and treated with control liposomes administered by i.p. injection (triangles, homozygous RIP1 mice; diamonds, wild-type RIP mice), or 400 μg RLIP76 liposomes administered by i.p. injection (squares, homozygous RIP1 mice; circles, wild-type RIP1 mice), given 12 hours after exposure.\nAs disclosed in U.S. Ser. No. 11/741,447, C57B mice that carry both copies of the RIP1 (mouse version of RLIP76) gene (wild-type; +/+), one copy of the RIP1 gene (heterozygous; +/−), or no copies of the RIP1 gene (homozygous; −/−) were created using Cre-Lox technology that can selectively suppress genes (Lexicon Genetics, Incorporated, The Woodlands, Tex.). Western blot analysis of tissues from homozygous RIP 1 knockout mice was performed after i.p. injection of RLIP76-liposomes. […]\nIf loss of RIP1 was the major determining factor in this acquired radiation sensitivity, replacement of this deficit should reverse radiation […]. […] Liposomes were prepared in sufficient quantities and administered via intraperitoneal (i.p.) injection to homozygous RIP1 mice. […]"}, "[4]": {"tested_on": "C57BL6/albino mice", "test": "Survival after whole body X-irradiation, oral RLIP76 proteoliposomes (dose and time response)", "type": "in vivo", "protocol": "In order to investigate whether RLIP76 could be effective when delivered more than 24 hours after radiation exposure, a series of studies were conducted to explore the protective benefit of RLIP76 when given at varying doses, exposure levels, and times after exposure. All mice were C57BL6/albino strain, the strain most commonly used for radiation effect models. Exposure was delivered by whole body X-irradiation with a Varian Clinac Linear accelerator (2100C) at the Texas Cancer Center (Arlington, Tex.). A 6-MeV photon beam was used at a rate of 400 cGy/minute. Mice were isolated to one side of their cage on top of 1.5 cm of superflab bolus and the field of treatment centered on them. Total dose was split into two fractions, anterior and posterior, by rotating the accelerator gantry 180 degrees. Unless otherwise specified, all experiments were performed on six mice per group.\nDose and time dependency was investigated over a range of radiation exposures. Initially, six groups of wild-type mice were exposed to 500 cGy of radiation, and then treated with no RLIP76 proteoliposomes (control) or various dosages of RLIP76 proteoliposomes given at various times after the radiation exposure. […]"}},
  "data": [
    {"molecule": "Cc1cc(C(C)(C)C)c(O)c(C(C)(C)C)c1", "note": "[BHT, butylated hydroxytoluene]", "values": [
      {"measurement": "radioprotective effect on its own", "setting": "[1]", "value": "radioprotective effect"}
    ]},
    {"molecule": "CC1=NN(c2ccccc2)C(=O)C1", "note": "[edaravone, 3 methyl-1-phenyl-2-pyrazolin-5-one]", "values": [
      {"measurement": "dose-reduction factor (DRF)", "setting": "[2]", "value": 1.3}
    ]},
    {"molecule": "CC1(C)CC(O)CC(C)(C)N1[O]", "note": "[tempol, 4-hydroxy-2,2,6,6-tetramethylpiperidinyloxy]", "values": [
      {"measurement": "dose-reduction factor (DRF)", "setting": "[2]", "value": 1.3}
    ]},
    {"molecule": "B1", "values": [
      {"measurement": "survival as compared with RIP1+/+ mice", "setting": "[3]; RIP1−/− mice supplemented with RLIP76, 750 cGy", "value": "significantly improved survival"},
      {"measurement": "reversal of radiation sensitivity", "setting": "[3]; mice genetically deficient in RLIP76 protein, supplementation by intravenous or oral administration", "value": "can be reversed"},
      {"measurement": "rescue with delayed first dose", "setting": "[4]; initial dose given a full 24 hours or more after the radiation exposure", "value": "significant rescue"},
      {"measurement": "increase in survival", "setting": "[4]; wild-type mice, radiation dose that normally results in complete lethality by day 30 (500 cGy), 2 doses of 100 micrograms, oral", "value": 200, "unit": "%"}
    ]}
  ]
}
